Four molecules from patent US20250179200A1 (UNIVERSITY OF CHICAGO, published 2025) can be followed below.

Changes are numbered by the printed parent chain.

To fix the notation:
B1: GHR3 Fab (Fab, V domains shown)
VH: EVQLVESGGGLVQPGGSLRLSCAASGFNVSYYSIHWVRQAPGKGLEWVAYISPSYGSTSYADSVKGRFTISADTSKNTAYLQMNSLRAEDTAVYYCARGYWGGGYWPYHAFDYWGQGTLVTVSS
VL: DIQMTQSPSSLSASVGDRVTITCRASQSVSSAVAWYQQKPGKAPKLLIYSASSLYSGVPSRFSGSRSGTDFTLTISSLQPEDFATYYCQQYYTSLLTFGQGTKVEIKR
B2: GHR_TS40 Fab (Fab, V domains shown)
VH: EVQLVESGGGLVQPGGSLRLSCAASGFNVSYYYIHWVRQAPGKGLEWVASIYPSSGYTSYADSVKGRFTISADTSKNTAYLQMNSLRAEDTAVYYCARYYWPASYWSGYSALDYWGQGTLVTVSS
VL: B1 VL with Y92P, T93W, S94G, L96I
B3: GHR_TS10 Fab (Fab, V domains shown)
VH: EVQLVESGGGLVQPGGSLRLSCAASGFNFSSSYIHWVRQAPGKGLEWVAYISPSSGYTSYADSVKGRFTISADTSKNTAYLQMNSLRAEDTAVYYCARQYYGGWYGFGMDYWGQGTLVTVSS
VL: B1 VL with Y91W, Y92H, T93S, S94Y, L96I
B4: GHR_TS23 Fab (Fab, V domains shown)
VH: EVQLVESGGGLVQPGGSLRLSCAASGFNFYYSSIHWVRQAPGKGLEWVASIYSYSGSTSYADSVKGRFTISADTSKNTAYLQMNSLRAEDTAVYYCARQYWYYGGYFYYGIDYWGQGTLVTVSS
VL: B1 VL with Y92W, T93S, S94T, L96I

For this assay, the target named is T1, Growth Hormone Receptor (GHR) immobilized on a high binding plate (UniProt P10912 19-264, limits assumed).
T1 sequence (looked up): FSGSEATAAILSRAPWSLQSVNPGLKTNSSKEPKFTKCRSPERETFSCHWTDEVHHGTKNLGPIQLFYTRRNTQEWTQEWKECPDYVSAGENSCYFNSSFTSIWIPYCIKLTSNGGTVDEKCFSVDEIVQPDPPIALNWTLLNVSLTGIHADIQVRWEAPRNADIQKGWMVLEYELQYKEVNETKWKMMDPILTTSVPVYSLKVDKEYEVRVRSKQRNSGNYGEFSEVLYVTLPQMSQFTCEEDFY
Nature of the assay: competition ELISA: Fab titrated on plate-bound GHR preincubated with 200 nM GH (the legend of 6A names B2036), anti-human Fab-HRP. Here is the method: 200 nM of GHR was immobilized on a 96-well high binding plate (Geiner Bio) and blocked with 5% BSA overnight. […] The Fab binding to GHR was detected using HRP-conjugated anti-human (Fab)2 antibody (Jackson ImmunoResearch, 1:5000 dilution in PBST), and the signal was developed with TMB substrate.
In the case of B1, the EC50 came to 26 nM. In turn, B2 returned an EC50 of 132 nM. To B3 belongs 3.5 nM. As to B4, it took 3.5 nM to reach a half-maximal effect (EC50).

Usually EC50 stands for the concentration giving half of the maximal effect.
